Data published in the DeepSol protein solubility set.

Assay: soluble on expression in E. coli; label from the status in PepcDB or PDB records

Row | Sequence | soluble on expression in E. coli
1 | MAHHHHHHMNVFDCTLCVATTISQFLVDEVMKQVSLYGGFRHVVRCHGNPQEDFMDVKQSGEPIVLLIANQAGREALKFLCDDYHLPKEQRRVLWIHSISSGLDSYKLNELVKELQDIPLTNARGCYSSILAEHVMYSMLYFYRQTWRSLASRAEHKWDPFLMVELRGRKVGIIGYGDIGRASAKLLSAFGMEVTGVKRSASTKEVDEYGVRLVHGDAERERVLRESDFVVNILPGTEETKRLFNKELFSMMKPSAVYINIGRGITQNEDDLACALRDGVIRGASVDVFEREPLPAESPLWDISDDKILLTYHNAVLSDDFCKKAIDCFMLLARDFGSDGFASNVIQIDKFYCG | soluble
2 | MPSNDIQGLELPQSYFNAAAKRQKYAMKPGLSALEKNAVIKAAYRQIFERDITKAYSQSISYLESQVRNGDISMKEFVRRLAKSPLYRKQFFEPFINSRALELAFRHILGRGPSSREEVQKYFSIVSSGGLPALVDALVDSQEYADYFGEETVPYLRGLGVEALEHHHHHH | soluble
3 | MDWLLTPGPVRLHPKALEALARPQLHHRTEAAREVFLKARGLLREAFRTEGEVLILTGSGTLAMEALVKNLFAPGERVLVPVYGKFSERFYEIALEAGLVVERLDYPYGDTPRPEDVAKEGYAGLLLVHSETSTGALADLPALARAFKEKNPEGLVGADMVTSLLVGEVALEAMGVDAAASGSQKGLMCPPGLGFVALSPRALERLKPRGYYLDLARELKAQKEGESAWTPAINLVLAVAAVLEEVLPRLEEHLALKAWQNALLYGVGEEGGLRPVPKRFSPAVAAFYLPEGVPYARVKEAFAQRGAVIAGGQGPLKGKVFRLSLMGAYDRYEALGVAGMFREVLEEILPAS | soluble
4 | MGSDKIHHHHHHMLVELKKPKLKDGKDQLRSYCNATGSPIAVWTNGDQISYYQRKDPNYFEDIPGLPNANQTLADILQIKFTLEDLIANDKLVKENKSLKTLIEEMEDDVLANAGVDVFEELFKLIFTKLYDEWYSGQGNRRSTRSLEFRNTGQTEAALKTKIQDLFDKAKKKWEGVFSEDAKISLTPSHLSVCVSSLENVKLFNSNLDVIDEAFEYLINQSSKGEKGQFFTPRYVIDLCVKMLNPQEDEYMIDTAAGSSGFPVHTIFHVWRQILDDEGLSASHLFSLEDKPPRCKEYVEDKVFAIDFDEKAVRVARTLNLIAGDGQTNVLHLNTLDYELWDEVTEQDDWDDIYHEGFKRLKRLRPKNSKDYREFQFDVLMANPPFAGDIKEPDTVGECNTYLYLKVLCKLKPSICRCSF | not soluble
5 | MGHHHHHHSHMRISPGQINQVRPKLPLLKILHAAGAQGEMFTVKEVMHYLGQYIMVKQLYDQQEQHMVYCGGDLLGELLGRQSFSVKDPSPLYDMLRKNLVTLATATT | not soluble
6 | GSPDPEIFRQRFRQFGYQDSPGPREAVSQLRELCRLWLRPETHTKEQILELVVLEQFVAILPKELQTWVRDHHPENGEEAVTVLEDLESELDD | soluble
7 | MGSDKIHHHHHHMDAPSTTPHDAVFKQFLMHAETARDFLEIHLPVELRELCDLNTLHLESGSFIEESLKGHSTDVLYSVQMQGNPGYLHVVIEHQSKPDKKMAFRMMRYSIAAMHRHLEADHDKLPLVVPILFYQGEATPYPLSMCWFDMFYSPELARRVYNSPFPLVDITITPDDEIMQHRRIAILELLQKHIRQRDLMLLLEQLVTLIDEGYTSGSQLVAMQNYMLQRGHTEQADLFYGVLRDRETGGESMMTLAQWFEEKGIEKGIQQGRQEVSQEFAQRLLSKGMSREDVAEMANLPLAEIDKVINLI | not soluble
8 | MGSDKIHHHHHHMTDSTTLYPVFAEELLPGGGHRSFILKRGELLRLTDLNGNANVSLTLLNAHEKTERLNLPDSLKCQHTAKLSNGHCLYSDMGRVLAAIVTDTCGWSDSIGGVLNAQEVAEKYGQGRYQELRNGFFRNGVDNLLVELGKWGLGLSDLLMTLNLFSRVDVSETGTLHFAPNNSKAGDYIELYAPMDTLVVLTALQHPMDPNPDYVPQPLTLSWMKADASVAEHCRTSRPENERGFINTDRLFA | not soluble
9 | MGGVKKNALLDYVFTKALENLTALFTQLNITAVKEIIRPLETGHEAYFVLPIDARTLKVLMIELEESIPLARLWDLDVFNAKGNLLSRTDFDLSPRTCLVCGENAKICARTHKHEIDEIVDKIQSLAQNHDFAEHIGEQVYLALIQEARLSPKPGLVDAINNGSHKDMNLHTFEQSAISLKPFFTQFVLKGMMTAHLSENQILSEIRPLGLLAEKAMFKVTDGVNTHKGAIFSFGLVCTAIGRLLAQKSLVQSAVDFDVKLICSLVAQFTQGLTDELKNYPEHLPSTAGVRLFQKYGLTGVRGEAENGFNLIQTLLPQFDEYHQLEWEHRLLILLLNLMAINSDTNVVHRGGLAGLYFIQQTAQDLLTDQHLVTDKTALTQALMKFDTACIERNLSSGGSADLLALTIFFLSFRGN | not soluble
